The source of these data is paper PMC12726990, “Sialylated Clusterin Binds CD33 to Regulate Microglial Functions in Alzheimer's Disease” (Alzheimer's & Dementia, 2025).

What is called Kd is the free concentration of one partner at which half of the binding sites on the other are occupied at equilibrium, for simple one-to-one binding.

This assay concerns the target T1, Sialylated clusterin (CLU) (UniProt P10909 23-449, sialylated).
T1 construct: Clusterin (CLU), soluble sialylated protein
The experiment in a line: BLI + MST; quantitative binding assay; which of the two methods gave the value, and who was immobilised or labelled, is not told. As to conditions: both partners purified.

T1 sequence (P10909 23-449): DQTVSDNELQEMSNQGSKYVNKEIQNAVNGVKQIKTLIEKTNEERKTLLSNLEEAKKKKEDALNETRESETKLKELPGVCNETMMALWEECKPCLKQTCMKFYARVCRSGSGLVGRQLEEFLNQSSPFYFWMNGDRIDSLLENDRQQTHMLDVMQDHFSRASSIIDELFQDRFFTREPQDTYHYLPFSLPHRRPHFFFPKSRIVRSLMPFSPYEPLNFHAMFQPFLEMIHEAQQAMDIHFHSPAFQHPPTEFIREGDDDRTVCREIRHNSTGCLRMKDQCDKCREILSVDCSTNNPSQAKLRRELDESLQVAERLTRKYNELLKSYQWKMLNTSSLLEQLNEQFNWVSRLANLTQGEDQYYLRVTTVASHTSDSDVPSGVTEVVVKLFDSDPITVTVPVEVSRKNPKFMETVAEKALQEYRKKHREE

B1: sialic-acid binding immunoglobulin-like lectin 3 receptor (Siglec-3 / CD33) (receptor)
chain: DPNFWLQVQESVTVQEGLCVLVPCTFFHPIPYYDKNSPVHGYWFREGAIISRDSPVATNKLDQEVQEETQGRFRLLGDPSRNNCSLSIVDARRRDNGSYFFRMERGSTKYSYKSPQLSVHVTDLTHRPKILIPGTLEPGHSKNLTCSVSWACEQGTPPIFSWLSAAPTSLGPRTTHSSVLIITPRPQDHGTNLTCQVKFAGAGVTTERTIQLNVTYVPQNPTTGIFPGDGSGKQETRAGVVH
On to B1, for which the Kd was 28.9 ± 10.3 nM.
